{"source": "the supplement of paper PMC9170038", "test_system": "MS2 coat protein", "test": "apparent KD of MS2 coat protein; designed switch direction (-1 OFF switch, 1 ON switch): -1; higher = weaker reporter binding", "procedure,_shortened": "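For each design, the apparent KD is the median over clusters of curves fitted to normalised cluster fluorescence. Clusters held RNA switches with common flanks, transcribed on Illumina chips by stalled E. coli RNA polymerase. These were titrated with SNAP-549-labelled MS2 coat protein, doubling from 0.7 or 1.5 nM to 3 µM, without input, with 200 uM small-molecule ligand, or with an oligonucleotide input.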", "key": {"[1]": {"conditions": "input ligand: microRNA oligo, concentration not stated"}, "[2]": {"conditions": "Eterna round: R95, input ligand: FMN 200 uM"}, "[3]": {"conditions": "Eterna round: R95, input ligand: microRNA oligo, concentration not stated"}, "[4]": {"conditions": "Eterna round: R95, input ligand: none"}}}
{"sequence": "GAAAAGUCAGGAUAUGCAGAUAAAAAAACGAAAAAAAAUCUGCAGAAGGGACAUGAGGAUCACCCAUGUAAAAG [Mat - Exclusion 4 - Mayanna - D110] (Eterna round: R96, puzzle: Exclusion 4)", "values": [{"measurement": "apparent KD of MS2 coat protein", "setting": "[1]", "result": 29.1, "unit": "nM"}]}
{"sequence": "AAGAAGAAACAAGCUUUUUGCACGUCAGGUAGUGACGCAACAUGAGGAUCACCCAUGUAUAGGGUGGGAAAGGAUAG [JR_SV3TOV2_Sub048] (puzzle: Sensor v3, turn-off variant 2)", "values": [{"measurement": "apparent KD of MS2 coat protein", "setting": "[2]", "result": 34, "unit": "nM"}, {"measurement": "apparent KD of MS2 coat protein", "setting": "[3]", "result": 30.9, "unit": "nM"}, {"measurement": "apparent KD of MS2 coat protein", "setting": "[4]", "result": 303, "unit": "nM"}]}
{"sequence": "CGAUGACGAGUGAGGAUAUCGUGUUCGAAAGAACGUGAGAAGGCACAUGAGGAUCACCCAUGUGAUCCUCAUCG [Omei Ex4B A26] (Eterna round: R97, puzzle: Brourd's mod of Exclusion 4)", "values": [{"measurement": "apparent KD of MS2 coat protein", "setting": "input ligand: FMN 200 uM", "result": 708, "unit": "nM"}, {"measurement": "apparent KD of MS2 coat protein", "setting": "input ligand: none", "result": 57.1, "unit": "nM"}]}
{"sequence": "UUUUAGAGAGGAUAUAUAUUGUGAAACAUGAGGAUCACCCAUGUAAUAAUAUGGAUAUAAAUAGAAGGCUCAUUUA [Mat - Exclusion 5 - JL mod - D8] (puzzle: Exclusion 5)", "values": [{"measurement": "apparent KD of MS2 coat protein", "setting": "[2]", "result": 25.7, "unit": "nM"}, {"measurement": "apparent KD of MS2 coat protein", "setting": "[3]", "result": 26.9, "unit": "nM"}, {"measurement": "apparent KD of MS2 coat protein", "setting": "[4]", "result": 28.8, "unit": "nM"}]}
{"sequence": "UGAGAACUGCGAGGAUAUACAUGAGGAUCACCCAUGUAAUAGUGUGAGGCUUUGCCUCACACAAUGUAGAAGGCGCAGUUCUCU [Mat - Exclusion NG 2 - Mod of JL - D7] (Eterna round: R96, puzzle: Exclusion NG 2)", "values": [{"measurement": "apparent KD of MS2 coat protein", "setting": "input ligand: FMN 200 uM", "result": 18.4, "unit": "nM"}, {"measurement": "apparent KD of MS2 coat protein", "setting": "[1]", "result": 10.1, "unit": "nM"}, {"measurement": "apparent KD of MS2 coat protein", "setting": "input ligand: none", "result": 11.9, "unit": "nM"}]}
{"sequence": "AAAUCGGUAGAGGAUAUUGUACAGGAAACGGUGCGAGAAGGUUGCACAUGAGGAUCACCCAUGUUUAAUUGCGA [EX6 #49] (Eterna round: R97, puzzle: Exclusion 6)", "values": [{"measurement": "apparent KD of MS2 coat protein", "setting": "input ligand: FMN 200 uM", "result": 43.1, "unit": "nM"}, {"measurement": "apparent KD of MS2 coat protein", "setting": "input ligand: none", "result": 28.5, "unit": "nM"}]}
{"sequence": "CGCCCGGGAGGAUAUCCAAUAUAUGACAUGAGGAUCACCCAUGUUUCCACUCGUACCUCCGGAGAAGGCCCGGCGA [Ex5 #28] (Eterna round: R97, puzzle: Exclusion 5)", "values": [{"measurement": "apparent KD of MS2 coat protein", "setting": "input ligand: FMN 200 uM", "result": 20.2, "unit": "nM"}, {"measurement": "apparent KD of MS2 coat protein", "setting": "input ligand: none", "result": 24.9, "unit": "nM"}]}
{"sequence": "UAUAUAUAGUAAGGAUAUGUAUUAAUUUUAUGAACAGAAGGUACUGACAUGAGGAUCACCCAUGUUUUAGUGUGGGCAUGUAGA [JMF's solution 91] (Eterna round: R96, puzzle: Exclusion NG 1)", "values": [{"measurement": "apparent KD of MS2 coat protein", "setting": "[1]", "result": 65.5, "unit": "nM"}]}
{"sequence": "GUGAGGUAAGGAUAUAGUAGUGAAGGUAAGAUAUGAGAAUGCUAGAAGGUACAUGAGGAUCACCCAUGUUCGGG [JR_Exclu4_Sub089] (puzzle: Exclusion 4)", "values": [{"measurement": "apparent KD of MS2 coat protein", "setting": "[3]", "result": 173, "unit": "nM"}]}
{"sequence": "CUCUUGUCAGGAUAUUAUGGACGAUAGCAGGACUACGUCAGUGAGAAGGGACAUGAGGAUCACCCAUGUAAAAU [Anqubi] (puzzle: Exclusion 4)", "values": [{"measurement": "apparent KD of MS2 coat protein", "setting": "[3]", "result": 72.6, "unit": "nM"}]}
{"sequence": "UUAAUUAAUUAAUUAUAAGAUCAACAUGAGGAUCACCCAUGUGAGGAUAUCAGCUCGUUUAGAGCUGAGAAGGCACAAAUAAUU [ExNG3/16-B2] (Eterna round: R96, puzzle: Exclusion NG 3)", "values": [{"measurement": "apparent KD of MS2 coat protein", "setting": "input ligand: FMN 200 uM", "result": 208, "unit": "nM"}, {"measurement": "apparent KD of MS2 coat protein", "setting": "[1]", "result": 45.7, "unit": "nM"}, {"measurement": "apparent KD of MS2 coat protein", "setting": "input ligand: none", "result": 49.8, "unit": "nM"}]}
{"sequence": "CGGGCCGGCCUUCCGGCCGGCCCGACAUGAGGAUCACCCAUGUAGGAUAUCCCGGCUGCCGGCCGGGAGAAGGGCGUGCGUCCG [-50.4, -49.4 kcal, 14% A] (Eterna round: R96, puzzle: Exclusion NG 3)", "values": [{"measurement": "apparent KD of MS2 coat protein", "setting": "input ligand: FMN 200 uM", "result": 151, "unit": "nM"}, {"measurement": "apparent KD of MS2 coat protein", "setting": "[1]", "result": 87.8, "unit": "nM"}, {"measurement": "apparent KD of MS2 coat protein", "setting": "input ligand: none", "result": 137, "unit": "nM"}]}
{"sequence": "GGUUGGCGAGGAUAUACAUGAGGAUCACCCAUGUGAGAAAAAAAAGUGAGGAAGAAAAGUAGAAGGCGCUGACG [salish99_ex3_r3_015] (puzzle: Exclusion 3)", "values": [{"measurement": "apparent KD of MS2 coat protein", "setting": "[2]", "result": 67.7, "unit": "nM"}, {"measurement": "apparent KD of MS2 coat protein", "setting": "[3]", "result": 37.7, "unit": "nM"}, {"measurement": "apparent KD of MS2 coat protein", "setting": "[4]", "result": 35.6, "unit": "nM"}]}
{"sequence": "CGGAUGUAAGGAUAUUAGUAGUAGUCAGAAAAGACUAUUACUGAGAAGGUACAUGAGGAUCACCCAUGUUUCCG [Mat - Exclusion 4 - Eli Mod - D43] (Eterna round: R97, puzzle: Exclusion 4)", "values": [{"measurement": "apparent KD of MS2 coat protein", "setting": "input ligand: FMN 200 uM", "result": 20.5, "unit": "nM"}, {"measurement": "apparent KD of MS2 coat protein", "setting": "input ligand: none", "result": 15.8, "unit": "nM"}]}
{"sequence": "GUAAGAUCCGUCAGGAUAUAUGCCCAAGGAGGGACGUAGAAGGGACAUGAGGAUCACCCAUGUACCUCAAGGAU [Eternabot (L1) Solution 97] (Eterna round: R97, puzzle: Brourd's mod of Exclusion 4)", "values": [{"measurement": "apparent KD of MS2 coat protein", "setting": "input ligand: FMN 200 uM", "result": 17.6, "unit": "nM"}, {"measurement": "apparent KD of MS2 coat protein", "setting": "input ligand: none", "result": 16.1, "unit": "nM"}]}
{"sequence": "UAUUAGCAAGCAAGAUCCCACAUGAGGAUCACCCAUGUGCUCGUCUUAUAAGGUACUGUGACGAUAGUCACGGUACC [Mat - Sensor, turn-off var - Eli Mod - D46] (Eterna round: R97, puzzle: Sensor, turn-off variant 1)", "values": [{"measurement": "apparent KD of MS2 coat protein", "setting": "input ligand: FMN 200 uM", "result": 60.5, "unit": "nM"}, {"measurement": "apparent KD of MS2 coat protein", "setting": "input ligand: none", "result": 54.1, "unit": "nM"}]}
{"sequence": "UACAUGAGGAUCACCCAUGUUUUGUCGUGUAUGGUAUUUAUCUAGGAUAUCAAUUUACUUAUUUAUGAGAAGGAGAAUAUUAAU [JMF's solution 19] (Eterna round: R96, puzzle: Exclusion NG 3)", "values": [{"measurement": "apparent KD of MS2 coat protein", "setting": "[1]", "result": 26.8, "unit": "nM"}]}
{"sequence": "UAAUACUCAGGAUAUAUGAUGUGAAACAUGAGGAUCACCCAUGUAAUAUUAUGGAUGUAAAUAGAAGGGAGAUUAU [Mat - Exclusion 5 - JL mod - D20] (puzzle: Exclusion 5)", "values": [{"measurement": "apparent KD of MS2 coat protein", "setting": "[2]", "result": 53.3, "unit": "nM"}, {"measurement": "apparent KD of MS2 coat protein", "setting": "[3]", "result": 55.4, "unit": "nM"}, {"measurement": "apparent KD of MS2 coat protein", "setting": "[4]", "result": 63, "unit": "nM"}]}
{"sequence": "UAAUGCAAGUAAAGAUCUUACAUGAGGAUCACCCAUGUGCUCGUCUUAUAAAGUACUAUCACGAAAGUGAUAGUACA [Mat - Sensor v3 - turn-off var 1 - Eli Mod - D89] (puzzle: Sensor v3, turn-off variant 1)", "values": [{"measurement": "apparent KD of MS2 coat protein", "setting": "[2]", "result": 18.2, "unit": "nM"}, {"measurement": "apparent KD of MS2 coat protein", "setting": "[3]", "result": 119, "unit": "nM"}, {"measurement": "apparent KD of MS2 coat protein", "setting": "[4]", "result": 18, "unit": "nM"}]}
{"sequence": "GAUUAACAUGAGGAUCACCCAUGUGAGGAUAUGAACUUGCCCACUUACCAGAUAAAGUUUAGAAGGCGCAUUCU [1986#35] (Eterna round: R97, puzzle: Exclusion 1)", "values": [{"measurement": "apparent KD of MS2 coat protein", "setting": "input ligand: FMN 200 uM", "result": 47.3, "unit": "nM"}, {"measurement": "apparent KD of MS2 coat protein", "setting": "input ligand: none", "result": 30.4, "unit": "nM"}]}
{"sequence": "AAUGAUUGACGAGGAUAUUGUGGUAAAACACGACGAGAAGGCGUCUGUCACAUGAGGAUCACCCAUGUGAGCUUUGUGGAUAGA [Ex NG1 #72] (Eterna round: R96, puzzle: Exclusion NG 1)", "values": [{"measurement": "apparent KD of MS2 coat protein", "setting": "input ligand: FMN 200 uM", "result": 52.3, "unit": "nM"}, {"measurement": "apparent KD of MS2 coat protein", "setting": "[1]", "result": 33.6, "unit": "nM"}, {"measurement": "apparent KD of MS2 coat protein", "setting": "input ligand: none", "result": 59.8, "unit": "nM"}]}
{"sequence": "UAGCAUUGCCUUUGGUAGUGCUUUACAUGAGGAUCACCCAUGUAGGAUAUGGUAGGCUUUGCUUACCAGAAGGACAUGAUAAUU [JL ENG3 1.04] (Eterna round: R96, puzzle: Exclusion NG 3)", "values": [{"measurement": "apparent KD of MS2 coat protein", "setting": "[1]", "result": 52.3, "unit": "nM"}]}
{"sequence": "GAGAACUGAGGAUAUACAUGAGGAUCACCCAUGUUAAGAAGAAAGUAUAAAAGAUUAUGUAGAAGGCAGAGAGA [JR_Ex3_Sub068] (Eterna round: R97, puzzle: Exclusion 3)", "values": [{"measurement": "apparent KD of MS2 coat protein", "setting": "input ligand: FMN 200 uM", "result": 29.8, "unit": "nM"}, {"measurement": "apparent KD of MS2 coat protein", "setting": "input ligand: none", "result": 33.3, "unit": "nM"}]}
{"sequence": "AUGCGUGGCUAGGAUAUUGAGGAAUUUAGCCAGCAAGAAGGAGCCACAUGAGGAUCACCCAUGUGGUGAACCUC [jl-ex6-4.61 ViennaUCT mod] (Eterna round: R97, puzzle: Exclusion 6)", "values": [{"measurement": "apparent KD of MS2 coat protein", "setting": "input ligand: FMN 200 uM", "result": 13.2, "unit": "nM"}, {"measurement": "apparent KD of MS2 coat protein", "setting": "input ligand: none", "result": 30.6, "unit": "nM"}]}
{"sequence": "UUUAGUUGGUAAGGAUAUCCUACAUUGUUCUGGCCCGGGCAUGCUACAUGAGGAUCACCCAUGUGGGAGAAGGUGCGUCAUUGC [Design 20] (Eterna round: R96, puzzle: Exclusion NG 2)", "values": [{"measurement": "apparent KD of MS2 coat protein", "setting": "input ligand: FMN 200 uM", "result": 42.5, "unit": "nM"}, {"measurement": "apparent KD of MS2 coat protein", "setting": "[1]", "result": 42.5, "unit": "nM"}, {"measurement": "apparent KD of MS2 coat protein", "setting": "input ligand: none", "result": 51.8, "unit": "nM"}]}
